Measurements: PMC6384963, “The β-N-Acetylhexosaminidase in the Synthesis of Bioactive Glycans: Protein and Reaction Engineering” (Molecules, 2019)
Numbering of substitutions follows the chain as printed. In names and notes the source's numbering stands.

B1: TfHex (β-N-acetylhexosaminidase from Talaromyces flavus) (Talaromyces flavus; Y470N) (protein)
chain: VAVNPLPAPRSITWGTSGPISVPHNVDVKLPKNAIINDAWERAWTSIKQLRWVPQATEAPISSYEPFPTVAPTSASTASSTPLPSSSAAAVAARSQKRGHQKGSHEKRGHSQSTLRTVTVTVSDLNADLQAEVDESYTLVLDSGSSTLAITANTTWGALHAFTTLQQLVIYQDNSLIIEQPVHIEDSPLYPWRGVMIDTGRNFITVPKIKEQIDGMALSKLNILHWHLDDSQSWPVHMDTYPQMTNDAYSPWQTYSHEDIKDIIEYARARAVRVVPEVDMPGHSAAGWQQVDPSIVACAHSWWSNDNWPYHTAVEPTPGQLDPLNNKTYGVVEKVYNELSGIFTDDFFHVGGDELQTGCYNFSTYVSDYLAADPSRTYNDVTQYWVDHAFPIFKKIQNRKLVIWEDLIINNPHAPNVSTENLLVQSWNNGLTNINNLTNLGYDVLVSSSDFMNLDCGYGGFVTNDPRYDVMVNPDAVDGLANFNWGGNGGSWCAPYKTWQRIYDYDFTTNLTDAQAAHVKGAVAPLWSEQVDDTVISGKMWPRAAALAELVWSGNKDPKTGDKRTTYMTQRILNFREYLVANGVQAAPLVPKYCLQHPHSCDLYYDQTAVV
notes: secreted from Pichia pastoris KM71H, pPICZαA vector; purified by cation-exchange chromatography
B2: TfHex (β-N-acetylhexosaminidase from Talaromyces flavus) (Talaromyces flavus) (protein)
chain: B1 chain with N453Y
notes: as for B1
B3: TfHex (β-N-acetylhexosaminidase from Talaromyces flavus) (Talaromyces flavus; Y470H) (protein)
chain: B1 chain with N453H
notes: as for B1
B4: TfHex (β-N-acetylhexosaminidase from Talaromyces flavus) (Talaromyces flavus; Y470F) (protein)
chain: B1 chain with N453F
notes: as for B1

Columns and labels:
purified protein [1] = substrate: CC(=O)N[C@H]1[C@H](Oc2ccc([N+](=O)[O-])cc2)O[C@H](CO)[C@H](O)[C@@H]1O; assay: purified protein; type: biochemical, Talaromyces flavus; conditions: McIlvaine buffer pH 5.0, 25 °C, hydrolysis
purified protein [2] = substrate: CC(=O)N[C@H]1[C@H](Oc2ccc([N+](=O)[O-])cc2)O[C@H](CO)[C@@H](O)[C@@H]1O; assay: purified protein; type: biochemical, Talaromyces flavus; conditions: McIlvaine buffer pH 5.0, 25 °C, hydrolysis

Protein	Km (purified protein [1])	kcat (purified protein [1])	kcat/Km (purified protein [1])	Km (purified protein [2])	kcat (purified protein [2])	kcat/Km (purified protein [2])
B1	890 ± 90 µM	0.35 ± 0.01 s⁻¹	400 M⁻¹ s⁻¹	890 ± 130 µM	11.6 ± 0.6 s⁻¹	13000 M⁻¹ s⁻¹
B2	690 ± 90 µM	104 ± 5 s⁻¹	150000 M⁻¹ s⁻¹	110 ± 20 µM	47 ± 1 s⁻¹	434000 M⁻¹ s⁻¹
B3	350 ± 30 µM	0.188 ± 0.004 s⁻¹	530 M⁻¹ s⁻¹	53 ± 8 µM	0.67 ± 0.02 s⁻¹	13000 M⁻¹ s⁻¹
B4	50 ± 5 µM	0.166 ± 0.003 s⁻¹	3300 M⁻¹ s⁻¹	23 ± 8 µM	0.27 ± 0.01 s⁻¹	12000 M⁻¹ s⁻¹
